{"source": "paper PMC7728438", "key": {"[1]": {"target": "PC-1^deltaNT/PC-2_(F604P) heteromer (UniProt P98161)", "sequence (P98161 other isoform, or with tags, fused parts or gaps F604P | F604P, chain 1 of 2)": "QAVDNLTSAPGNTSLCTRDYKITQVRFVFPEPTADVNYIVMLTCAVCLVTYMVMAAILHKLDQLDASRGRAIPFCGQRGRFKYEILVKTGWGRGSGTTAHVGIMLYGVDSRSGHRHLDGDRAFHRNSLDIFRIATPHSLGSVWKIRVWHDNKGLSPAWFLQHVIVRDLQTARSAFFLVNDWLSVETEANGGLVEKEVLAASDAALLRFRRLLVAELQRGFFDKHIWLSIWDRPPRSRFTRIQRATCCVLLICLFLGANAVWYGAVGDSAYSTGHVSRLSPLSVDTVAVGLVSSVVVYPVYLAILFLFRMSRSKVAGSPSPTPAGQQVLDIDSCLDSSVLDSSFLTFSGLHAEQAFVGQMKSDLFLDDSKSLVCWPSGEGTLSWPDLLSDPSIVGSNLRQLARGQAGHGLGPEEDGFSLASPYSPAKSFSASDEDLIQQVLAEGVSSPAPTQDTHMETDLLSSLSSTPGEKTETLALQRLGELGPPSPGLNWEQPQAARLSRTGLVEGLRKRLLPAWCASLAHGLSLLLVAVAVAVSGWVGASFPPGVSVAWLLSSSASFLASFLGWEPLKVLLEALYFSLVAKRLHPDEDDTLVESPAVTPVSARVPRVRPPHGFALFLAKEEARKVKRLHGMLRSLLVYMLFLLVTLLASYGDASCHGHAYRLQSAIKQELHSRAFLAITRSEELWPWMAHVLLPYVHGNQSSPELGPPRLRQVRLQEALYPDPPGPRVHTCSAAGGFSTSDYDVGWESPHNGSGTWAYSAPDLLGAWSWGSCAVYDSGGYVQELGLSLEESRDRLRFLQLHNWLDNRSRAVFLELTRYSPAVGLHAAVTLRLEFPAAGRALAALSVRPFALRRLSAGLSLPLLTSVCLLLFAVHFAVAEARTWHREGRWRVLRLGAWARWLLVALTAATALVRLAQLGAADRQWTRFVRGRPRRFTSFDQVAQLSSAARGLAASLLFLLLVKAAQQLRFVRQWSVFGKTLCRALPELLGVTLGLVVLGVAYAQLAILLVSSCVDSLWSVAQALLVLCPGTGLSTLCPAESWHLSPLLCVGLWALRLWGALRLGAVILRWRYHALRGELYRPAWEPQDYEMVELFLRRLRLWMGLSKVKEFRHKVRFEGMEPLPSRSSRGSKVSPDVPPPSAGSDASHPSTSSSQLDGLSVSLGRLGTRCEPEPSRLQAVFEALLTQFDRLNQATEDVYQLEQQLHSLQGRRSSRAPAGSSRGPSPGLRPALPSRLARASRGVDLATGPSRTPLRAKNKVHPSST", "sequence (Q13563 whole entry F604P, chain 2 of 2, further chain)": "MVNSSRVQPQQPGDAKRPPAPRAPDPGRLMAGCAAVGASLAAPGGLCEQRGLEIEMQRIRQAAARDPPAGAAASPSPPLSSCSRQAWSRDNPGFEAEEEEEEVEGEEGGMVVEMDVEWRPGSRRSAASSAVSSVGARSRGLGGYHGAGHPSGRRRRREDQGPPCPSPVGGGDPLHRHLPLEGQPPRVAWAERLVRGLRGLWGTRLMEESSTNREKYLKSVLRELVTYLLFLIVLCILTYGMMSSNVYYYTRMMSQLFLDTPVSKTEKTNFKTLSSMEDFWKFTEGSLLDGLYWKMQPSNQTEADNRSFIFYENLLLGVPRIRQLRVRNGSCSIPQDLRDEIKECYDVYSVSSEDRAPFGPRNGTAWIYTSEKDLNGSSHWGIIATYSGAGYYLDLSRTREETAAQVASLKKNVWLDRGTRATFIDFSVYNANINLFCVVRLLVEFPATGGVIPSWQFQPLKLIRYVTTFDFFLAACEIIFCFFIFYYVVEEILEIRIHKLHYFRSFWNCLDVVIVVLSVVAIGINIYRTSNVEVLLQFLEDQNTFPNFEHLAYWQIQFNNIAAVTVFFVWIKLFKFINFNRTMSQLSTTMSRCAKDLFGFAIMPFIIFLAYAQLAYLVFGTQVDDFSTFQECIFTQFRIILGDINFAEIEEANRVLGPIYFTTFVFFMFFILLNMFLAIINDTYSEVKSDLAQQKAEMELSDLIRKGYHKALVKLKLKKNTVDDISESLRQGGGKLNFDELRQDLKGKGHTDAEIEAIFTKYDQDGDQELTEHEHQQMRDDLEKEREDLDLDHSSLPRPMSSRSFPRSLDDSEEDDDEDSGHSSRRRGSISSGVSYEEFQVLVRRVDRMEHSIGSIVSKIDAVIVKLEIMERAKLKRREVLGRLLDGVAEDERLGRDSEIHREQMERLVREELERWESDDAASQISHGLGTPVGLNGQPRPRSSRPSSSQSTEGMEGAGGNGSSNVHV"}, "[2]": {"target": "PC-2 F604P (human polycystin-2 with the gain of function mutation F604P) (human) (UniProt Q13563)", "sequence (Q13563 whole entry F604P)": "as the sequence (Q13563 whole entry F604P, chain 2 of 2, further chain) above"}, "[3]": {"target": "native heteromeric PC-1/PC-2 polycystin complex of mIMCD-3 primary cilia (mouse (endogenous in mIMCD-3)) (UniProt O08852)"}, "[4]": {"target": "native heteromeric PC-1/PC-2 polycystin complex of mIMCD-3 primary cilia (mouse (endogenous in mIMCD-3)) (UniProt O08852)", "remark": "listed apart in the source"}}, "data": [{"substance": "PC-1 N-terminal fragment NTF^24-852 (from UniProt P98161 24-852) (domain or fragment)", "values": [{"measurement": "outward whole-cell currents of HEK293 cells expressing PC-1deltaNT/PC-2 F604P with the fragment in the bath solution", "setting": "[1]", "result": 65.5, "unit": "pA/pF"}]}, {"substance": "sPC-1 (human polycystin-1 with Ig kappa-chain secretion sequence and HA tag in place of its own signal peptide) (from UniProt P98161 24-4303) (receptor)", "values": [{"measurement": "relative open probability at -100 mV, whole-cell patch clamp, HEK293 cells", "setting": "[2]", "result": 0.1}, {"measurement": "whole-cell patch clamp current density at +100 mV, HEK293 cells co-expressing sPC-1 and PC-2 F604P (PC-2 F604P alone gave negligible currents)", "setting": "[2]", "result": 123, "unit": "pA/pF"}]}, {"substance": "sPC-1_(pore) (sPC-1 with R4100G, R4107G and H4111G) (from UniProt P98161 24-4303) (receptor)", "values": [{"measurement": "relative open probability at -100 mV, whole-cell patch clamp, HEK293 cells", "setting": "[2]", "result": 0.3}, {"measurement": "whole-cell patch clamp current density at +180 mV, HEK293 cells co-expressing sPC-1pore and PC-2 F604P", "setting": "[2]", "result": 71.1, "unit": "pA/pF"}]}, {"substance": "PC-1 N-terminal fragment NTF^263-535 (from UniProt P98161 263-535) (domain or fragment)", "values": [{"measurement": "outward whole-cell currents of HEK293 cells expressing PC-1deltaNT/PC-2 F604P with the fragment in the bath solution (boiled fragment inactive)", "setting": "[1]", "result": 61.4, "unit": "pA/pF"}, {"measurement": "probability of single channel openings at negative membrane potentials, excised inside-out patches of mIMCD-3 primary cilia, 0.7 ug/mL (~50 nM) fragment in the pipette", "setting": "[3]", "result": 5, "unit": "fold"}, {"measurement": "spike-like elevations of ciliary Ca2+ (Arl13b-mScarlet-GCaMP6s, TIRF microscopy) in mIMCD-3 cells after the fragment; none in untreated cells, with boiled fragment or in PC-2 knockout cells", "setting": "[4]", "result": "> 0.35 ΔF/F"}]}]}
